Among the data in PMC9563011 are EC50 of CTLL-2 cell proliferation (CellTiter-Glo, 48 h, 50 to 0.002 ng/mL) values, retold here.

This test concerns the target IL-2Rα Fc tag (UniProt P01589).
UniProt P01589, sequence (P01589 22-240): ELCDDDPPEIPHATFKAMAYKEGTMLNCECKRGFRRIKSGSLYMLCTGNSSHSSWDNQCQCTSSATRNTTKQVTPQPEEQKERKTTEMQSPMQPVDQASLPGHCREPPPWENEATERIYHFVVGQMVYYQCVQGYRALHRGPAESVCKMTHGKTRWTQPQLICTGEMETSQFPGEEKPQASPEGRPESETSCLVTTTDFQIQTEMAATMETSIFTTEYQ

In turn, “IL-2K35C (from UniProt P60568 22-153) (ligand)” yielded an EC50 of CTLL-2 cell proliferation (CellTiter-Glo, 48 h, 50 to 0.002 ng/mL) of 0.014 µg/mL.
